# The supplement of paper PMC10567573
# B1: TMEM175 (parent)
# chain: ALLHQAETLQPSVWFGGREHVLMF
# Variants of: B1
# Test: protein stability index of a GFP-peptide fusion (GPS, HEK-293T) (PSI 1-6); higher = more stable
# Conditions: c terminus: a fixed tail appended
# 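Note: lentivirally expressed fusions sorted by FACS into six bins by GFP to DsRed ratio, PSI derived from sequencing read proportions per bin multiplied by bin number.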
row,Variant,protein stability index
1,ALLHQAETLQPSVWFGGREHNLMF [V21N],2.02
2,ALLHQAETCQPSVWFGGREHVLMF [L9C],3.64
3,ALLHDAETLQPSVWFGGREHVLMF [Q5D],2.03
4,ALLHQAETLQPSVWFGGVEHVLMF [R18V],1.44
5,ALTHQAETLQPSVWFGGREHVLMF [L3T],2.37
6,ALLHQAYTLQPSVWFGGREHVLMF [E7Y],1.78
7,ALLHQAETLNPSVWFGGREHVLMF [Q10N],3.13
8,ALLHQAETLQPSVWEGGREHVLMF [F15E],1.57
9,ALAHQAETLQPSVWFGGREHVLMF [L3A],1.76
10,ALLHQAETLQPSVWFYGREHVLMF [G16Y],3.05
11,ALLHQAESLQPSVWFGGREHVLMF [T8S],1.65
12,ALLHQAETLQPSVWFGGREHWLMF [V21W],1.57
13,ALLHQAETLQPMVWFGGREHVLMF [S12M],1.75
14,ALLHQAETLQPSYWFGGREHVLMF [V13Y],1.69
15,ALLHQAETLQPSVWFGGREHVLMH [F24H],2.15
16,ALLHQAETLQPSVWTGGREHVLMF [F15T],1.85
17,ALLHQAETLQPSVWFGQREHVLMF [G17Q],1.4
18,ALLHQAETLQPSVWFPGREHVLMF [G16P],1.14
19,ALLHQAEKLQPSVWFGGREHVLMF [T8K],3.25
20,ALLHQAETLQPSVRFGGREHVLMF [W14R],2.65
21,ALSHQAETLQPSVWFGGREHVLMF [L3S],2.25
22,ALLKQAETLQPSVWFGGREHVLMF [H4K],1.52
23,ALLHQAETLQPSPWFGGREHVLMF [V13P],2.16
24,ALLHQQETLQPSVWFGGREHVLMF [A6Q],1.87

row,Variant,protein stability index
1,ALLHQAETLQPSWWFGGREHVLMF [V13W],2.36
2,ALLHQAETLQPSVGFGGREHVLMF [W14G],2.64
3,ALLHQAETLQPSVWFGGREHVLMK [F24K],2.5
4,ALLHQAETLQPSVWFGGREHYLMF [V21Y],1.7
5,ALLHRAETLQPSVWFGGREHVLMF [Q5R],2.33
6,ALLHQAETLQPSVWFGGRSHVLMF [E19S],2.2
7,ALLHQAETLQPSVWFGGKEHVLMF [R18K],3.39
8,ALLHQAETLQPTVWFGGREHVLMF [S12T],2.65
9,ALLHHAETLQPSVWFGGREHVLMF [Q5H],2.37
10,ALQHQAETLQPSVWFGGREHVLMF [L3Q],1.54
11,ALLHQAETEQPSVWFGGREHVLMF [L9E],1.16
12,ALLHQAETLQPSVWFGGREHVLMS [F24S],2.56
13,ALLHQAKTLQPSVWFGGREHVLMF [E7K],3.58
14,ALLHQAETLQPSVWRGGREHVLMF [F15R],2.02
15,ALLHQAETLQPSVWHGGREHVLMF [F15H],2.12
16,ALLHQAETLQPSVWFGGREGVLMF [H20G],1.74
17,ALLHQAETLQPSVWFGGREDVLMF [H20D],1.29
18,ALLHQAETLQPSVWYGGREHVLMF [F15Y],2.4
19,ALLHQAETLQPSHWFGGREHVLMF [V13H],2.22
20,ACLHQAETLQPSVWFGGREHVLMF [L2C],3.82
21,ALNHQAETLQPSVWFGGREHVLMF [L3N],1.04
22,ALLHQAETLQPSVWFGGQEHVLMF [R18Q],2.33
23,ALLHQAETGQPSVWFGGREHVLMF [L9G],2.85
24,AVLHQAETLQPSVWFGGREHVLMF [L2V],1.3

row,Variant,protein stability index
1,ALLSQAETLQPSVWFGGREHVLMF [H4S],1.99
2,ALLHFAETLQPSVWFGGREHVLMF [Q5F],1.43
3,ALLHQAETLQPSVWFGGRHHVLMF [E19H],2.74
4,ALLHQAPTLQPSVWFGGREHVLMF [E7P],1.96
5,ALLHQAETLQPSVWFGGREHPLMF [V21P],2.11
6,ALLHQAETLQPSQWFGGREHVLMF [V13Q],3.1
7,HLLHQAETLQPSVWFGGREHVLMF [A1H],2.14
8,ALLHQAETLVPSVWFGGREHVLMF [Q10V],1.06
9,ALLHQAETWQPSVWFGGREHVLMF [L9W],1.7
10,ALLHQAETLQPSVWFGVREHVLMF [G17V],2.62
11,ALLHQAETLQPSVWFGGREHVAMF [L22A],1.1
12,ANLHQAETLQPSVWFGGREHVLMF [L2N],1.06
13,ALLHQAETLQPSVWFGGHEHVLMF [R18H],2.17
14,ALLHQAETLQPSVWFNGREHVLMF [G16N],2.41
15,ALLHQAETLQPSVWFGGIEHVLMF [R18I],3.13
16,ALLHQAETLQPSVWFGGREHILMF [V21I],1.53
17,ALLHQADTLQPSVWFGGREHVLMF [E7D],1
18,ALLHMAETLQPSVWFGGREHVLMF [Q5M],3.42
19,ALLHQAETLQPSNWFGGREHVLMF [V13N],2.28
20,ALLHQAETLQPSVWFGYREHVLMF [G17Y],1.58
21,ALLHQAEDLQPSVWFGGREHVLMF [T8D],1.83
22,ALLHQAETLQPSVWMGGREHVLMF [F15M],1.82
23,ALLHQAETLQASVWFGGREHVLMF [P11A],1.78
24,ALVHQAETLQPSVWFGGREHVLMF [L3V],1.31

row,Variant,protein stability index
1,ALLWQAETLQPSVWFGGREHVLMF [H4W],3.3
2,ALLHQAETLQPSVWCGGREHVLMF [F15C],2.5
3,ALLHQAETLQPSVWFGGCEHVLMF [R18C],3.1
4,ALLHQAETLQPSVFFGGREHVLMF [W14F],2.48
5,ALLHQAETLQPSVWFGGREQVLMF [H20Q],1.44
6,ALLHQAETLQPSVWFGGNEHVLMF [R18N],3.11
7,AALHQAETLQPSVWFGGREHVLMF [L2A],2.96
8,ALLHSAETLQPSVWFGGREHVLMF [Q5S],2.72
9,ALLHQAETLQPSVWDGGREHVLMF [F15D],2.29
10,ALLHQAETLQPSCWFGGREHVLMF [V13C],3.13
11,ALLHQAQTLQPSVWFGGREHVLMF [E7Q],2.71
12,ALLHQAETLQPSVMFGGREHVLMF [W14M],2.08
13,ALLHQAETLQPSVWFGGREHVLMN [F24N],3.21
14,ALLHQAETLQPSVQFGGREHVLMF [W14Q],2.24
15,ALLHQAEFLQPSVWFGGREHVLMF [T8F],3.68
16,ALLQQAETLQPSVWFGGREHVLMF [H4Q],1.73
17,ALLHQAETLQPSIWFGGREHVLMF [V13I],2.25
18,ALLHQAETLQPEVWFGGREHVLMF [S12E],2.31
19,ALLHQAETLQPSRWFGGREHVLMF [V13R],2.02
20,ALLHQAETLQPSSWFGGREHVLMF [V13S],2.73
21,ALLHQAETLQPSVWFGGREHVLEF [M23E],3.67
22,ALLHQAETLQPSVWFGGREHSLMF [V21S],1.52
